According to PMC10540216, “Activity Guided Azide-methyllysine Photo-trapping for Substrate Profiling of Lysine Demethylases” (Journal of the American Chemical Society, 2023):

B1: HNRPM_HUMAN (protein, UniProt P52272 2-730, looked up)
Heterogeneous nuclear …: AAGVEAAAEVAATEIKMEEESGAPGVPSGNGAPGPKGEGERPAQNEKRKEKNIKRGGNRFEPYANPTKRYRAFITNIPFDVKWQSLKDLVKEKVGEVTYVELLMDAEGKSRGCAVVEFKMEESMKKAAEVLNKHSLSGRPLKVKEDPDGEHARRAMQKVMATTGGMGMGPGGPGMITIPPSILNNPNIPNEIIHALQAGRLGSTVFVANLDYKVGWKKLKEVFSMAGVVVRADILEDKDGKSRGIGTVTFEQSIEAVQAISMFNGQLLFDRPMHVKMDERALPKGDFFPPERPQQLPHGLGGIGMGLGPGGQPIDANHLNKGIGMGNIGPAGMGMEGIGFGINKMGGMEGPFGGGMENMGRFGSGMNMGRINEILSNALKRGEIIAKQGGGGGGGSVPGIERMGPGIDRLGGAGMERMGAGLGHGMDRVGSEIERMGLVMDRMGSVERMGSGIERMGPLGLDHMASSIERMGQTMERIGSGVERMGAGMGFGLERMAAPIDRVGQTIERMGSGVERMGPAIERMGLSMERMVPAGMGAGLERMGPVMDRMATGLERMGANNLERMGLERMGANSLERMGLERMGANSLERMGPAMGPALGAGIERMGLAMGGGGGASFDRAIEMERGNFGGSFAGSFGGAGGHAPGVARKACQIFVRNLPFDFTWKMLKDKFNECGHVLYADIKMENGKSKGCGVVKFESPEVAERACRMMNGMKLSGREIDVRIDRNA
B2: C1TM_HUMAN (protein, UniProt Q6UB35 32-978, looked up)
Monofunctional …: SSGGGGGGGGGREGLLGQRRPQDGQARSSCSPGGRTPAARDSIVREVIQNSKEVLSLLQEKNPAFKPVLAIIQAGDDNLMQEINQNLAEEAGLNITHICLPPDSSEAEIIDEILKINEDTRVHGLALQISENLFSNKVLNALKPEKDVDGVTDINLGKLVRGDAHECFVSPVAKAVIELLEKSGVNLDGKKILVVGAHGSLEAALQCLFQRKGSMTMSIQWKTRQLQSKLHEADIVVLGSPKPEEIPLTWIQPGTTVLNCSHDFLSGKVGCGSPRIHFGGLIEEDDVILLAAALRIQNMVSSGRRWLREQQHRRWRLHCLKLQPLSPVPSDIEISRGQTPKAVDVLAKEIGLLADEIEIYGKSKAKVRLSVLERLKDQADGKYVLVAGITPTPLGEGKSTVTIGLVQALTAHLNVNSFACLRQPSQGPTFGVKGGAAGGGYAQVIPMEEFNLHLTGDIHAITAANNLLAAAIDTRILHENTQTDKALYNRLVPLVNGVREFSEIQLARLKKLGINKTDPSTLTEEEVSKFARLDIDPSTITWQRVLDTNDRFLRKITIGQGNTEKGHYRQAQFDIAVASEIMAVLALTDSLADMKARLGRMVVASDKSGQPVTADDLGVTGALTVLMKDAIKPNLMQTLEGTPVFVHAGPFANIAHGNSSVLADKIALKLVGEEGFVVTEAGFGADIGMEKFFNIKCRASGLVPNVVVLVATVRALKMHGGGPSVTAGVPLKKEYTEENIQLVADGCCNLQKQIQITQLFGVPVVVALNVFKTDTRAEIDLVCELAKRAGAFDAVPCYHWSVGGKGSVDLARAVREAASKRSRFQFLYDVQVPIVDKIRTIAQAVYGAKDIELSPEAQAKIDRYTQQGFGNLPICMAKTHLSLSHQPDKKGVPRDFILPISDVRASIGAGFIYPLVGTMSTMPGLPTRPCFYDIDLDTETEQVKGLF
B3: P5CS_HUMAN (protein, UniProt P54886 1-795, looked up)
Delta-1-pyrroline-5-carboxylat …: MLSQVYRCGFQPFNQHLLPWVKCTTVFRSHCIQPSVIRHVRSWSNIPFITVPLSRTHGKSFAHRSELKHAKRIVVKLGSAVVTRGDECGLALGRLASIVEQVSVLQNQGREMMLVTSGAVAFGKQRLRHEILLSQSVRQALHSGQNQLKEMAIPVLEARACAAAGQSGLMALYEAMFTQYSICAAQILVTNLDFHDEQKRRNLNGTLHELLRMNIVPIVNTNDAVVPPAEPNSDLQGVNVISVKDNDSLAARLAVEMKTDLLIVLSDVEGLFDSPPGSDDAKLIDIFYPGDQQSVTFGTKSRVGMGGMEAKVKAALWALQGGTSVVIANGTHPKVSGHVITDIVEGKKVGTFFSEVKPAGPTVEQQGEMARSGGRMLATLEPEQRAEIIHHLADLLTDQRDEILLANKKDLEEAEGRLAAPLLKRLSLSTSKLNSLAIGLRQIAASSQDSVGRVLRRTRIAKNLELEQVTVPIGVLLVIFESRPDCLPQVAALAIASGNGLLLKGGKEAAHSNRILHLLTQEALSIHGVKEAVQLVNTREEVEDLCRLDKMIDLIIPRGSSQLVRDIQKAAKGIPVMGHSEGICHMYVDSEASVDKVTRLVRDSKCEYPAACNALETLLIHRDLLRTPLFDQIIDMLRVEQVKIHAGPKFASYLTFSPSEVKSLRTEYGDLELCIEVVDNVQDAIDHIHKYGSSHTDVIVTEDENTAEFFLQHVDSACVFWNASTRFSDGYRFGLGAEVGISTSRIHARGPVGLEGLLTTKWLLRGKDHVVSDFSEHGSLKYLHENLPIPQRNTN
B4: NU160_HUMAN (protein, UniProt Q12769 1-1436, looked up)
Nuclear pore complex protein …: MLHLSAAPPAPPPEVTATARPCLCSVGRRGDGGKMAAAGALERSFVELSGAERERPRHFREFTVCSIGTANAVAGAVKYSESAGGFYYVESGKLFSVTRNRFIHWKTSGDTLELMEESLDINLLNNAIRLKFQNCSVLPGGVYVSETQNRVIILMLTNQTVHRLLLPHPSRMYRSELVVDSQMQSIFTDIGKVDFTDPCNYQLIPAVPGISPNSTASTAWLSSDGEALFALPCASGGIFVLKLPPYDIPGMVSVVELKQSSVMQRLLTGWMPTAIRGDQSPSDRPLSLAVHCVEHDAFIFALCQDHKLRMWSYKEQMCLMVADMLEYVPVKKDLRLTAGTGHKLRLAYSPTMGLYLGIYMHAPKRGQFCIFQLVSTESNRYSLDHISSLFTSQETLIDFALTSTDIWALWHDAENQTVVKYINFEHNVAGQWNPVFMQPLPEEEIVIRDDQDPREMYLQSLFTPGQFTNEALCKALQIFCRGTERNLDLSWSELKKEVTLAVENELQGSVTEYEFSQEEFRNLQQEFWCKFYACCLQYQEALSHPLALHLNPHTNMVCLLKKGYLSFLIPSSLVDHLYLLPYENLLTEDETTISDDVDIARDVICLIKCLRLIEESVTVDMSVIMEMSCYNLQSPEKAAEQILEDMITIDVENVMEDICSKLQEIRNPIHAIGLLIREMDYETEVEMEKGFNPAQPLNIRMNLTQLYGSNTAGYIVCRGVHKIASTRFLICRDLLILQQLLMRLGDAVIWGTGQLFQAQQDLLHRTAPLLLSYYLIKWGSECLATDVPLDTLESNLQHLSVLELTDSGALMANRFVSSPQTIVELFFQEVARKHIISHLFSQPKAPLSQTGLNWPEMITAITSYLLQLLWPSNPGCLFLECLMGNCQYVQLQDYIQLLHPWCQVNVGSCRFMLGRCYLVTGEGQKALECFCQAASEVGKEEFLDRLIRSEDGEIVSTPRLQYYDKVLRLLDVIGLPELVIQLATSAITEAGDDWKSQATLRTCIFKHHLDLGHNSQAYEALTQIPDSSRQLDCLRQLVVVLCERSQLQDLVEFPYVNLHNEVVGIIESRARAVDLMTHNYYELLYAFHIYRHNYRKAGTVMFEYGMRLGREVRTLRGLEKQGNCYLAALNCLRLIRPEYAWIVQPVSGAVYDRPGASPKRNHDGECTAAPTNRQIEILELEDLEKECSLARIRLTLAQHDPSAVAVAGSSSAEEMVTLLVQAGLFDTAISLCQTFKLPLTPVFEGLAFKCIKLQFGGEAAQAEAWAWLAANQLSSVITTKESSATDEAWRLLSTYLERYKVQNNLYHHCVINKLLSHGVPLPNWLINSYKKVDAAELLRLYLNYDLLEEAVDLVSEYVDAVLGKGHQYFGIEFPLSATAPMVWLPYSSIDQLLQALGENSANSHNIALSQKILDKLEDYQQKVDKATRDLLYRRTL

Test system: KDM4A-I71AzF
Test: CASI: photo-crosslinking with HEK293T cell extracts, StrepTactin enrichment and LC-MS/MS proteomics;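 note: lysates from HEK293T cells pretreated with a KDM4 inhibitor to raise proteome methylation, affinity-purified after ±UV, gel-resolved, trypsin-digested, with exclusive unique peptides per protein averaged per condition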
Format: binding, human
Settings: sheet "Final results but with 0.01"

| Molecule | Fold change (+UV/-UV) |
| --- | --- |
| B1 | 1 |
| B2 | 1.091 |
| B3 | 2.143 |
| B4 | 0.5 |
